Source: publication PMC9760430, “A stapled chromogranin A-derived peptide homes in on tumors that express αvβ6 or αvβ8 integrins” (International Journal of Biological Sciences, 2023)
Bridge positions count the residues as written; N and C are the ends. Square brackets hold non-standard residues; d marks the D form. Ends that are not written are not given here. Lys(N3) = [N-]=[N+]=NCCCC[C@H](N)C(=O)O; Pra = C#CC[C@H](N)C(=O)O

Experiments:
Conditions in all cases: both partners purified
[1] = molecular target: T1, recombinant murine αvβ8 integrin (murine, UniProt P43406 31-1044; Q0VBD0 22-681); assay: direct integrin binding assay (near-infrared fluorescence scan of plates); microtiter plates coated with αvβ6 or αvβ8; peptide-IRDye conjugates incubated 1 h, washed, bound fluorescence read with Odyssey CLx; EC50
T1 construct: integrin αv subunit, mouse; integrin β8 subunit, mouse; details of reagents are in the Supplemental Materials; source: bought: Bio-Techne

[2] = molecular target: T2, recombinant murine αvβ6 integrin (murine, UniProt P43406 31-1044; Q9Z0T9 22-708); assay: as above
T2 construct: integrin αv subunit, mouse; integrin β6 subunit, mouse; details of reagents are in the Supplemental Materials; source: bought: Bio-Techne

[3] = molecular target: T3, recombinant human αvβ6 integrin (human, UniProt P06756 31-1048; P18564 22-709); assay: as above
T3 construct: integrin αv subunit, human; integrin β6 subunit, human; details of reagents are in the Supplemental Materials; Such bought integrins are, as I recall, soluble extracellular heterodimers; also called purified αvβ6; source: bought: Bio-Techne

[4] = molecular target: T4, recombinant human αvβ8 integrin (human, UniProt P06756 31-1048; P26012 43-684); assay: as above
T4 construct: integrin αv subunit, human; integrin β8 subunit, human; details of reagents are in the Supplemental Materials; also called purified αvβ8; source: bought: Bio-Techne

[5] = molecular target: T3, recombinant human αvβ6 integrin; assay: ELISA; competitive integrin binding assay: αvβ6-coated plates, isoDGR peptide labeled with peroxidase as probe for the integrin-binding site; Ki

T2 sequence (P43406 whole entry, chain 1 of 2): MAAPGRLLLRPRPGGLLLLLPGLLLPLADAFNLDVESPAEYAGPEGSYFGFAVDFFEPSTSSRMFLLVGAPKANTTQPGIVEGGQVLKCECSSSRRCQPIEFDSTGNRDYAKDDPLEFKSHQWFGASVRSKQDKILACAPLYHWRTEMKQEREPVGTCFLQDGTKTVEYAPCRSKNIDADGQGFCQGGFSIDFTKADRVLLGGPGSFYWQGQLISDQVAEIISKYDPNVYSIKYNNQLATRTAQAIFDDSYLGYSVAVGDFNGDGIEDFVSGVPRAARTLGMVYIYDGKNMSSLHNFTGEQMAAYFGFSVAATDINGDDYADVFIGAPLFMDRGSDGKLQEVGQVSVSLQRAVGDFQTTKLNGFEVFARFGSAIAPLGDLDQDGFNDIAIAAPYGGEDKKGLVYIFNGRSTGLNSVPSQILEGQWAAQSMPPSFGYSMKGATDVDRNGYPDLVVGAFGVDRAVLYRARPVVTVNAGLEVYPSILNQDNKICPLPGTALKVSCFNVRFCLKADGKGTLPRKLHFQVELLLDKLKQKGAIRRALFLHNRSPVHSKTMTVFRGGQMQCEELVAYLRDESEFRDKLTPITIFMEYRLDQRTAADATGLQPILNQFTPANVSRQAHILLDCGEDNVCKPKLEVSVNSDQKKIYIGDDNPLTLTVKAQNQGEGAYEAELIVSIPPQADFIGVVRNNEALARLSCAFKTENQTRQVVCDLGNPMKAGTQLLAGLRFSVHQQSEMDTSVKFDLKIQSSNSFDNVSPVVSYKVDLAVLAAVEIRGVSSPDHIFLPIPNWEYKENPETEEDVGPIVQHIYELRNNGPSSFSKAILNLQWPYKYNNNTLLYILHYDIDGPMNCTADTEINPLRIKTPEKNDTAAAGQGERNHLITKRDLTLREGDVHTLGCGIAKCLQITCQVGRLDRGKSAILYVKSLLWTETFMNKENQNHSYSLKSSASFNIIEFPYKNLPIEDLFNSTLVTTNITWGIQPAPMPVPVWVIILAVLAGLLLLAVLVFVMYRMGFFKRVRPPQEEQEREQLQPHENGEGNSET
T2 sequence (Q9Z0T9 whole entry, chain 2 of 2): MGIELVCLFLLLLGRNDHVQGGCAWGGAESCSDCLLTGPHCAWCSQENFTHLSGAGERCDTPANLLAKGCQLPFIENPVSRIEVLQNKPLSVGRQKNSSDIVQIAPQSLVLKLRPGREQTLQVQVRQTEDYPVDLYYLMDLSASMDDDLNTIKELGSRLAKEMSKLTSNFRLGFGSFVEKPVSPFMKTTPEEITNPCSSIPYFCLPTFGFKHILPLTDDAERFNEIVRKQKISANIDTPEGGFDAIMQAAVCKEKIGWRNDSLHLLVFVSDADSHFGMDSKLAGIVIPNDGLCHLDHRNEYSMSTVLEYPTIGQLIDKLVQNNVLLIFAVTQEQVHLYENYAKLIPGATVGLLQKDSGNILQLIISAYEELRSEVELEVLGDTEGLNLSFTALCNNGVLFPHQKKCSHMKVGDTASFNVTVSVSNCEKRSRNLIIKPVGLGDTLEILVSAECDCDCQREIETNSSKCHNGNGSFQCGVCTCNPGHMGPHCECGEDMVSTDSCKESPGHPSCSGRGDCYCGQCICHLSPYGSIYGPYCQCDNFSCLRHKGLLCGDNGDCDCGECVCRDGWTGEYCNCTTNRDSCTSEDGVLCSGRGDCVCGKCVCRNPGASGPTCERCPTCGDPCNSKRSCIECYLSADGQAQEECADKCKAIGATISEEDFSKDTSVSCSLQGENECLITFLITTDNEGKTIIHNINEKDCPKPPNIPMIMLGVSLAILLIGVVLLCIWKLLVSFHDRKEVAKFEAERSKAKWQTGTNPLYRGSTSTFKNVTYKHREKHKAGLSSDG
T1 sequence (P43406 whole entry, chain 1 of 2): as the sequence (P43406 whole entry, chain 1 of 2) above
T1 sequence (Q0VBD0 whole entry, chain 2 of 2): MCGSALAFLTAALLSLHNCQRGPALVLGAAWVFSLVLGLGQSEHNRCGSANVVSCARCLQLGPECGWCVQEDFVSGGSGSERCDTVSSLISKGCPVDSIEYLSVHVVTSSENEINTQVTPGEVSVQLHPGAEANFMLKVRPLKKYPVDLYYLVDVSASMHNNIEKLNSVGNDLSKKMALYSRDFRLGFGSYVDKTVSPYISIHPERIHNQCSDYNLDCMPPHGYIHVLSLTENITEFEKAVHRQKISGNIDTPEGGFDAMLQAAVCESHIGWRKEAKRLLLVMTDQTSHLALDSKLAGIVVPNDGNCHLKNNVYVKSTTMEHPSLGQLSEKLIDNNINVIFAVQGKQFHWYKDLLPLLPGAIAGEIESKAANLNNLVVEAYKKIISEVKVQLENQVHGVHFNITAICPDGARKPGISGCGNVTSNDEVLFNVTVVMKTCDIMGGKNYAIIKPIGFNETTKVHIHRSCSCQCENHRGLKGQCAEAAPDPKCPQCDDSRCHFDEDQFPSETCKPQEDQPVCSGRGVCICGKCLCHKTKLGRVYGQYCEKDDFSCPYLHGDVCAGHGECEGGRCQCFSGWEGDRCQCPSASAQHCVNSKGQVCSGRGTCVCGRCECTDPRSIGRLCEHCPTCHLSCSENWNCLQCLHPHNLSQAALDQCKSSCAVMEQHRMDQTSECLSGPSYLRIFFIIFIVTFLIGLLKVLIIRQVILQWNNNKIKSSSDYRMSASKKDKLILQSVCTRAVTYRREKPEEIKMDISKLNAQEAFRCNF

Binder	EC50 [1] [nM]	EC50 [2] [nM]	EC50 [3] [nM]	EC50 [4] [nM]	Ki [5] [nM]
C(maleimide‑IRDye 800CW)FETLRGDLRILSILR[Pra]QNL[Lys(N3)]KELQD-NH2 (triazole 17-21) [5a-IRDye conjugate]	0.65	0.9	2.8	1.9	
C(maleimide‑NOTA)FETLRGDLRILSILR[Pra]QNL[Lys(N3)]KELQD-NH2 (triazole 17-21) [5a-NOTA conjugate]					2.3
CFETLRGDLRILSILR[Pra]QNL[Lys(N3)]KELQD-NH2 (triazole 17-21) [peptide 5a]					1.7
